Assay results reported in PMC5102900, “ROS-Mediated Inhibition of S-nitrosoglutathione Reductase Contributes to the Activation of Anti-oxidative Mechanisms” (Frontiers in Plant Science, 2016).

B1: Arabidopsis thaliana S-nitrosoglutathione reductase (GSNOR), recombinant His6-GSNOR, reduced (enzyme, UniProt Q96533 1-379, looked up)
chain: MATQGQVITCKAAVAYEPNKPLVIEDVQVAPPQAGEVRIKILYTALCHTDAYTWSGKDPEGLFPCILGHEAAGIVESVGEGVTEVQAGDHVIPCYQAECRECKFCKSGKTNLCGKVRSATGVGIMMNDRKSRFSVNGKPIYHFMGTSTFSQYTVVHDVSVAKIDPTAPLDKVCLLGCGVPTGLGAVWNTAKVEPGSNVAIFGLGTVGLAVAEGAKTAGASRIIGIDIDSKKYETAKKFGVNEFVNPKDHDKPIQEVIVDLTDGGVDYSFECIGNVSVMRAALECCHKGWGTSVIVGVAASGQEISTRPFQLVTGRVWKGTAFGGFKSRTQVPWLVEKYMNKEIKVDEYITHNLTLGEINKAFDLLHEGTCLRCVLDTSK
notes: S-nitrosoglutathione reductase (GSNOR; glutathione-dependent formaldehyde dehydrogenase, class III alcohol dehydrogenase), Arabidopsis thaliana, At5g43940; Expressed from pDEST17 (Gateway); Run in buffer with 10 mM DTT; also called AtGSNOR; GSNO-reductase; source: E. coli BL21 DE3 pLysS, purified (Ni-NTA under reducing condition, followed by Äkta purification); not shown: His6, N-terminal, kept
B2: Arabidopsis thaliana S-nitrosoglutathione reductase (GSNOR), recombinant His6-GSNOR, oxidized with 1 mM H2O2 (enzyme, UniProt Q96533 1-379, looked up)
chain: B1 chain
modifications: oxidized by 1 mM H2O2 (oxidative modifications of cysteine residues; which residues at this concentration is not stated)
notes: S-nitrosoglutathione reductase (GSNOR; glutathione-dependent formaldehyde dehydrogenase, class III alcohol dehydrogenase), Arabidopsis thaliana, At5g43940; Same construct as m1, treated with H2O2 (200 ug GSNOR, 1 mM H2O2) and run without DTT; Mass spectrometry at 0.5 and 5 mM H2O2 found reversible and sulfinic or sulfonic modifications on most detected cysteines, among them Cys47 and Cys177; also …

Biological target: the molecule itself
Test: SEC-MALS; size exclusion chromatography (Superdex 200 10/300 GL, 4°C) with static light scattering (right-angle, Viscotek TDA 305, 30°C); 50 mM Tris-HCl pH 8.0, 200 mM NaCl, with 10 mM DTT (reduced sample) or without (sample oxidized by 1 mM H2O2); approximately 1.5 mg/ml, 100 ul applied

| Protein | stoichiometry N |
| --- | --- |
| B1 | 2 |
| B2 | 2 |
